According to paper PMC9352680, “A comprehensive thermodynamic model for RNA binding by the Saccharomyces cerevisiae Pumilio protein PUF4”:

T1: PUF4 RNA-binding domain (Saccharomyces cerevisiae, UniProt P25339 537-888)
T1 sequence: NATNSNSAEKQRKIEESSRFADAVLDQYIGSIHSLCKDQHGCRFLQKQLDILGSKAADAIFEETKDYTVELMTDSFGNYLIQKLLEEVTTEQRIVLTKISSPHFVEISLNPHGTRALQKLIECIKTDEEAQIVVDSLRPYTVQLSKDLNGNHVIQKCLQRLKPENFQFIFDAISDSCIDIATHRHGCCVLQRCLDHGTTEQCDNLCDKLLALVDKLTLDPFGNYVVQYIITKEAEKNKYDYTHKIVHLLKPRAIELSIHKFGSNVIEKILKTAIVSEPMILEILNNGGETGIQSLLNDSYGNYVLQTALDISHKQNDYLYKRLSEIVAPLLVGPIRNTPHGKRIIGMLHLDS


biological target: T1, PUF4 RNA-binding domain; assay: Mg; RNA-MaP; 20 mM Na-HEPES pH 7.4, 30 mM KOAc, 0.75 mM MgCl2, 0.1% Tween-20, 5% glycerol, 0.1 mg/mL BSA, 2 mM DTT; 25 C; 0.0125-409.6 nM protein; details: tags: N-His6-TEV cleaved; C-SNAP kept, Cy3B-labelled; label: tethered on chip by stalled RNA polymerase

Binder | Kd [nM]
UCUCUUUGUAUUCCUCUCUCUU (ssRNA) [Ic_S1_P5E.1_K5.1_C5.1_H5.1_A5.1_[A7C]_F5.1_[T8C]_[A10C]_T5.1] | 132
UCUCUUUGUAAAUUAAUCUCUU (ssRNA) [Ic_S1_P5E.1_K5.1_C5.1_H5.1_A5.1_[T5A]_[T6A]_[A7T]_F5.1_[T9A]_T5.1] | 1.57
UCUCUUUGUAAGUAAAUCUCUU (ssRNA) [Ic_S1_P5E.1_K5.1_C5.1_H5.1_A5.1_[T5A]_[T6G]_[A7T]_F5.1_[T8A]_[T9A]_T5.1] | 2150
UCUCUUCGUAUGUAUCUCUU (ssRNA) [Ib_S1_P3E.1_K3.1_C3.1_H3.1_[T1C]_A3.1_[A6G]_F3.1_T3.1] | 932
UCUCUUUGUACUUCCCUCUCUU (ssRNA) [Ic_S1_P5E.1_K5.1_C5.1_H5.1_A5.1_[T5C]_[A7T]_F5.1_[T8C]_[T9C]_[A10C]_T5.1] | 782
UCUCUUUGUAAAACACUCUCUU (ssRNA) [Ic_S1_P5E.1_K5.1_C5.1_H5.1_A5.1_[T5A]_[T6A]_F5.1_[T8C]_[T9A]_[A10C]_T5.1] | 56.4
UCUCUUUGUAAAUCCCUCUCUU (ssRNA) [Ic_S1_P5E.1_K5.1_C5.1_H5.1_A5.1_[T5A]_[T6A]_[A7T]_F5.1_[T8C]_[T9C]_[A10C]_T5.1] | 240
UCUCUUUGUAUAAACGUCUCUU (ssRNA) [Ic_S1_P5E.1_K5.1_C5.1_H5.1_A5.1_[T6A]_F5.1_[T8A]_[T9C]_[A10G]_T5.1] | 378
UCUCUUCGUAUUUAUCUCUU (ssRNA) [Ib_S1_P3E.1_K3.1_C3.1_H3.1_[T1C]_A3.1_[A6T]_F3.1_T3.1] | > 2300
UCUCUUUGUACUGUAAUCUCUU (ssRNA) [Ic_S1_P5E.1_K5.1_C5.1_H5.1_A5.1_[T5C]_[A7G]_F5.1_[T9A]_T5.1] | 7.89
UCUCUUUGUAUAUCCUUCUCUU (ssRNA) [Ic_S1_P5E.1_K5.1_C5.1_H5.1_A5.1_[T6A]_[A7T]_F5.1_[T8C]_[T9C]_[A10T]_T5.1] | 24
UCUCUUUGUAUAUUGUCUCUU (ssRNA) [Ic_S1_P4E.1_K4.1_C4.1_H4.1_A4.1_F4.1_[A9G]_T4.1] | 3.06
UCUCUUUGUACACACCUCUCUU (ssRNA) [Ic_S1_P5E.1_K5.1_C5.1_H5.1_A5.1_[T5C]_[T6A]_[A7C]_F5.1_[T8A]_[T9C]_[A10C]_T5.1] | 76.8
UCUCUUUGUACUGCAUUCUCUU (ssRNA) [Ic_S1_P5E.1_K5.1_C5.1_H5.1_A5.1_[T5C]_[A7G]_F5.1_[T8C]_[T9A]_[A10T]_T5.1] | 534
UCUCUUUGUAACUAUCUCUCUU (ssRNA) [Ic_S1_P5E.1_K5.1_C5.1_H5.1_A5.1_[T5A]_[T6C]_[A7T]_F5.1_[T8A]_[A10C]_T5.1] | 113
UCUCUUUGUACGACCAUCUCUU (ssRNA) [Ic_S1_P5E.1_K5.1_C5.1_H5.1_A5.1_[T5C]_[T6G]_F5.1_[T8C]_[T9C]_T5.1] | 1000

Binder | Kd [nM]
UCUCUUUGUACUCUAUUCUCUU (ssRNA) [Ic_S1_P5E.1_K5.1_C5.1_H5.1_A5.1_[T5C]_[A7C]_F5.1_[T9A]_[A10T]_T5.1] | 3.85
UCUCUUUGUAACUAAAUCUCUU (ssRNA) [Ic_S1_P5E.1_K5.1_C5.1_H5.1_A5.1_[T5A]_[T6C]_[A7T]_F5.1_[T8A]_[T9A]_T5.1] | 506
UCUCUUUGUAGCCUUUUCUCUU (ssRNA) [Ic_S1_P5E.1_K5.1_C5.1_H5.1_A5.1_[T5G]_[T6C]_[A7C]_F5.1_[A10T]_T5.1] | 470
UCUCUUUGUAUACGGCUCUCUU (ssRNA) [Ic_S1_P5E.1_K5.1_C5.1_H5.1_A5.1_[T6A]_[A7C]_F5.1_[T8G]_[T9G]_[A10C]_T5.1] | 460
UCUCUUUGUAACGAUGUCUCUU (ssRNA) [Ic_S1_P5E.1_K5.1_C5.1_H5.1_A5.1_[T5A]_[T6C]_[A7G]_F5.1_[T8A]_[A10G]_T5.1] | 1000
UCUCUUUGUAACGGCCUCUCUU (ssRNA) [Ic_S1_P5E.1_K5.1_C5.1_H5.1_A5.1_[T5A]_[T6C]_[A7G]_F5.1_[T8G]_[T9C]_[A10C]_T5.1] | > 2300
UCUCUUUGUACAUUCGUCUCUU (ssRNA) [Ic_S1_P5E.1_K5.1_C5.1_H5.1_A5.1_[T5C]_[T6A]_[A7T]_F5.1_[T9C]_[A10G]_T5.1] | 9.95
UCUCUUUGUAACCUUUUCUCUU (ssRNA) [Ic_S1_P5E.1_K5.1_C5.1_H5.1_A5.1_[T5A]_[T6C]_[A7C]_F5.1_[A10T]_T5.1] | 49.8
UCUCUUUGUAUCCUAUUCUCUU (ssRNA) [Ic_S1_P5E.1_K5.1_C5.1_H5.1_A5.1_[T6C]_[A7C]_F5.1_[T9A]_[A10T]_T5.1] | 5.11
Ic_S2_P3E.1_K3.1_C3.1_H3.1_A3.1_[T5G]_[A6C]_F3.1_[T7G]_[A8T]_T3.1 (ssRNA) RNA: UUUGAUUAAUAUGAUAUCGUUCUUUCUUGUAGCGUUUCUUUCUCGAUAUCAUAUUAAUCUUU | 163
Ic_S2_P3E.1_K3.1_C3.1_H3.1_A3.1_[T5G]_[A6C]_F3.1_[T7A]_[A8G]_T3.1 (ssRNA) RNA: UUUGAUUAAUAUGAUAUCGUUCUUUCUUGUAGCAGUUCUUUCUCGAUAUCAUAUUAAUCUUU | 754
Ic_S2_P3E.1_K3.1_C3.1_H3.1_A3.1_[T5G]_[A6C]_F3.1_[T7C]_[A8G]_T3.1 (ssRNA) RNA: UUUGAUUAAUAUGAUAUCGUUCUUUCUUGUAGCCGUUCUUUCUCGAUAUCAUAUUAAUCUUU | 996
Ic_S2_P3E.1_K3.1_C3.1_H3.1_A3.1_[T5G]_[A6C]_F3.1_[T7C]_[A8C]_T3.1 (ssRNA) RNA: UUUGAUUAAUAUGAUAUCGUUCUUUCUUGUAGCCCUUCUUUCUCGAUAUCAUAUUAAUCUUU | 526
Ic_S2_P3E.1_K3.1_C3.1_H3.1_A3.1_[T5G]_[A6C]_F3.1_[T7C]_[A8T]_T3.1 (ssRNA) RNA: UUUGAUUAAUAUGAUAUCGUUCUUUCUUGUAGCCUUUCUUUCUCGAUAUCAUAUUAAUCUUU | 63.9
Ic_S2_P3E.1_K3.1_C3.1_H3.1_A3.1_[T5G]_[A6C]_F3.1_[T7A]_T3.1 (ssRNA) RNA: UUUGAUUAAUAUGAUAUCGUUCUUUCUUGUAGCAAUUCUUUCUCGAUAUCAUAUUAAUCUUU | 506
